In patent US20240392003A1 (NUMAB THERAPEUTICS, published 2024):
Read-outs that look alike come from different tables or passages of the source.

Experiments:
[1] = molecular target: T1, human ROR1 expressed on cells (human, UniProt Q01973 30-937); assay: flow cytometry, MDA-MB-231 cells, 1 mg/ml hSA
T1 construct: whole, on cells; One molecule for cell-surface ROR1 on all cell lines; the cell line is named under assay; also called hROR1; plasma membrane human ROR1

[2] = molecular target: T2, recombinant human CD3 epsilon extra-cellular domain protein (His-Tag, SinoBiological) (human, UniProt P07766 23-126); assay: SPR; hCD3ε immobilized, two-state fit (kd1)
T2 construct: extracellular domain; Bought; also called hCD3ε; human CD3ε; not shown: His tag

[3] = molecular target: T3, recombinant human ROR1 protein (Fc-Tag, Acro Biosystems RO1-H5250) (human, UniProt Q01973 30-406); assay: SPR; hROR1-Fc immobilized (Avidity)
T3 construct: Bought; also called hROR1; recombinant human ROR1 ECD; not shown: Fc tag

[4] = molecular target: T4, human serum albumin (Sigma-Aldrich A3782) (human, UniProt P02768 25-609); assay: SPR; hSA immobilized, pH 5.5
T4 construct: also called hSA; HSA

[5] = molecular target: T1, human ROR1 expressed on cells; assay: flow cytometry, MDA-MB-231 cells, 1 mg/ml hSA; remark: listed apart in the source
[6] = molecular target: T2, recombinant human CD3 epsilon …; assay: SPR; hCD3ε immobilized, two-state fit
[7] = molecular target: T5, human ROR1 (Peprotech 160-054) (human, UniProt Q01973 30-406); assay: SPR; MATCH4 captured, hROR1 analyte (Affinity)
T5 construct: Bought, used as analyte; also called hROR1; recombinant human ROR1 protein

[8] = molecular target: T2, recombinant human CD3 epsilon …; assay: SPR; hCD3ε immobilized, two-state fit (Ka1)
[9] = molecular target: T3, recombinant human ROR1 protein (Fc-Tag, …); assay: SPR; hROR1-Fc immobilized;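 also: biacore T200 SPR with ROR1 covalently coupled to a CM5 chip, analyte titration series, apparent rate and equilibrium constants fitted with a 1:1 Langmuir model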
[10] = molecular target: T2, recombinant human CD3 epsilon …; assay: SPR; hCD3ε immobilized, two-state fit (kd1); remark: listed apart in the source
[11] = molecular target: T2, recombinant human CD3 epsilon …; assay: SPR; hCD3ε immobilized, two-state fit (ka1)
[12] = molecular target: T1, human ROR1 expressed on cells; assay: flow cytometry, MDA-MB-231 cells, 1 mg/ml hSA; remark: listed apart in the source
[13] = molecular target: T2, recombinant human CD3 epsilon …; assay: SPR; hCD3ε immobilized, two-state fit; remark: listed apart in the source
[14] = molecular target: T4, human serum albumin (Sigma-Aldrich …); assay: SPR; hSA immobilized, pH 5.5; remark: listed apart in the source

B1: PRO2658 (bispecific antibody)
chain 1: AQQLTQSPSSLSASVGDRVTITCQASQNVWNNNYLSWFQQKPGKPPKLLIVTASTLASGVSSRFSGSGSGTDFTLTISSLQPEDFATYYCAGGFSGEIRAFGTGTKVTVLGGGGGSGGGGSGGGGSGGGGSQSQLVESGGGLVQPGGSLRLSCAVSGLSLSRNAMSWVRQAPGKGLEWIGIILTSGSTYYASWAKGRFTISKDNSKNTVYLQMNSLRAEDTAVYFCVRGIASSSLKSFWGQGTLVTVSSGGGGSGGGGSAFELTQSPSSLSASVGDRVTITCQASESINSRLAWYQQKPGQPPKLLIYDASDLTSGVPSRFSGSGSGTDFTLTISSLQPEDFATYYCQGYGGSSTTTFGCGTKLTVLGGGSGGSDIQMTQSPSSLSASVGDRVTITCQSSQSVFSNNYLAWFQQKPGQSPKRLIYSASTLASGVPSRFSGSGSGTDFTLTISSLQPEDFATYYCLGSYACSSADCYVFGTGTKVTVLG
chain 2: AQQLTQSPSSLSASVGDRVTITCQASQNVWNNNYLSWFQQKPGKPPKLLIVTASTLASGVSSRFSGSGSGTDFTLTISSLQPEDFATYYCAGGFSGEIRAFGTGTKVTVLGGGGGSGGGGSGGGGSGGGGSQSQLVESGGGLVQPGGSLRLSCAVSGLSLSRNAMSWVRQAPGKGLEWIGIILTSGSTYYASWAKGRFTISKDNSKNTVYLQMNSLRAEDTAVYFCVRGIASSSLKSFWGQGTLVTVSSGGGGSGGGGSEVQLVESGGGLVQPGGSLRLSCAASGFSLSSYDMSWVRQAPGKGLAWIGASYASGPTYYASWAKGRFTISRDNSKNTVYLQMNSLRAEDTATYFCARGGWTGTSHSNIWGQGTLVTVSSGGGSGGGSGGGSGEVQLVESGGGLVQPGGSLRLSCAASGFSLSSYAMNWVRQAPGKCLEWIGHINAGDIAYYATWAKGRFTISRDNSKNTVYLQMNSLRAEDTAVYFCARGAGGFSTGPFKLWGQGTLVTVSS
notes: heterodimeric MATCH4
- binding result [1]: binds

B2: PRO2670 (bispecific antibody)
chain 1: DVQMTQSPSSLSASVGDRVTITCRASENIYSGLAWYQQKPGKPPKLLIYRASTLASGVSSRFSGSGSGTDFTLTISSLQPEDFATYYCQGGYYSSSSTYIAFGCGTKVTVLGGGGGSGGGGSGGGGSGGGGSQSQVVESGGGRVQPGGSLRLSCAVSGFDLSSYAVSWVRQAPGKCLEWIGIIYPRANTYYASWAKGRFTISKDNSKNTVYLQMNSLRAEDTATYFCARDRYDSGAYLYTTYFNLWGQGTQVTVSSGGGGSGGGGSAFELTQSPSSLSASVGDRVTITCQASESINSRLAWYQQKPGQPPKLLIYDASDLTSGVPSRFSGSGSGTDFTLTISSLQPEDFATYYCQGYGGSSTTTFGCGTKLTVLGGGSGGSDIQMTQSPSSLSASVGDRVTITCQSSQSVFSNNYLAWFQQKPGQSPKRLIYSASTLASGVPSRFSGSGSGTDFTLTISSLQPEDFATYYCLGSYACSSADCYVFGTGTKVTVLG
chain 2: DVQMTQSPSSLSASVGDRVTITCRASENIYSGLAWYQQKPGKPPKLLIYRASTLASGVSSRFSGSGSGTDFTLTISSLQPEDFATYYCQGGYYSSSSTYIAFGCGTKVTVLGGGGGSGGGGSGGGGSGGGGSQSQVVESGGGRVQPGGSLRLSCAVSGFDLSSYAVSWVRQAPGKCLEWIGIIYPRANTYYASWAKGRFTISKDNSKNTVYLQMNSLRAEDTATYFCARDRYDSGAYLYTTYFNLWGQGTQVTVSSGGGGSGGGGSEVQLVESGGGRVQPGGSLRLSCAASGFSLSSYDMSWVRQAPGKGLAWIGASYASGPTYYASWAKGRFTISRDNSKNTVYLQMNSLRAEDTATYFCARGGWTGTSHSNIWGQGTQVTVSSGGGSGGGSGGGSGEVQLVESGGGRVQPGGSLRLSCAASGFSLSSYAMNWVRQAPGKCLEWIGHINAGDIAYYATWAKGRFTISRDNSKNTVYLQMNSLRAEDTATYFCARGAGGFSTGPFKLWGQGTQVTVSS
notes: heterodimeric MATCH4, modified VH domains, optimized variant of PRO2590; also called MATCH4 with 55-38-D07-sc06(RTQ) / 19-04-A10-sc02(RTQ) diS / 28-21-D09-sc04(RTQ) / 55-38-D07-sc06(RTQ); RPO2670
- koff [2]: 0.0048 s⁻¹
- Kd [3]: 0.11 nM
- koff [3]: 8.1e-05 s⁻¹
- kon [3]: 760000 M⁻¹ s⁻¹
- Kd [4]: 3.5 nM
- koff [4]: 0.0013 s⁻¹
- kon [4]: 370000 M⁻¹ s⁻¹
- EC50 [5]: 0.85 nM
- Rel. maximum binding (MFIMATCH4/MFIPRO2213) [5]: 2.68
- rel. EC50 (EC50, PRO2213/EC50, MATCH4) [5]: 0.39
- Ka2 [6]: 0.0054 s⁻¹
- Kd [6]: 2.7 nM
- Kd2 [6]: 0.0047 s⁻¹
- Kd [7]: 2.87 nM
- koff [7]: 0.000132 s⁻¹
- kon [7]: 46000 M⁻¹ s⁻¹
- kon [8]: 820000 M⁻¹ s⁻¹

B3: PRO2287 (bispecific antibody)
chain: DIQMTQSPSSLSASVGDRVTITCQSSESVYSNNQLSWYQQKPGQPPKLLIYDASDLASGVPSRFSGSGSGTDFTLTISSLQPEDFATYYCAGGFSSSSDTAFGCGTKLTVLGGGGGSEVQLVESGGGLVQPGGSLRLSCAASGFSLSSYDMSWVRQAPGKGLAWIGASYASGPTYYASWAKGRFTISRDNSKNTVYLQMNSLRAEDTATYFCARGGWTGTSHSNIWGQGTLVTVSSGGGGSGGGGSGGGGSGGGGSDIQMTQSPSSLSASVGDRVTITCQSSQSVFSNNYLAWFQQKPGQSPKRLIYSASTLASGVPSRFSGSGSGTDFTLTISSLQPEDFATYYCLGSYACSSADCYVFGTGTKVTVLGGGGGSEVQLVESGGGLVQPGGSLRLSCAASGFSLSSNAMGWVRQAPGKCLEYIGIISVGGFTYYASWAKGRFTISRDNSKNTVYLQMNSLRAEDTATYFCARDRHGGDSSGAFYLWGQGTLVTVSSGGGGSGGGGSAQQLTQSPSSLSASVGDRVTITCQASQNVWNNNYLSWFQQKPGKPPKLLIVTASTLASGVSSRFSGSGSGTDFTLTISSLQPEDFATYYCAGGFSGEIRAFGTGTKVTVLGGGGGSGGGGSGGGGSGGGGSQSQLVESGGGLVQPGGSLRLSCAVSGLSLSRNAMSWVRQAPGKGLEWIGIILTSGSTYYASWAKGRFTISKDNSKNTVYLQMNSLRAEDTAVYFCVRGIASSSLKSFWGQGTLVTVSS
notes: trispecific anti-ROR1 x hSA x CD3 scMATCH3, single chain; also called 19-01-H04-sc02/3 diS scDb-o/28-21-D09-sc04 scDb-i/55-39-G02-sc02 scFv
- Kd [9]: 0.32 nM
- koff [9]: 0.0004 s⁻¹
- kon [9]: 1.3e+06 M⁻¹ s⁻¹
- fold lower EC50 binding than parental scFv PRO2062 [1]: ~5 fold
- koff [10]: 0.0034 s⁻¹
- kon [11]: 870000 M⁻¹ s⁻¹
- EC50 [12]: 1.83 nM
- Rel. maximum binding (MFIscMATCH3/MFIPRO2213) [12]: 1.98
- Kd [13]: 2.1 nM
- ka2 [13]: 0.0017 s⁻¹
- kd2 [13]: 0.002 s⁻¹

B4: PRO2286 (bispecific antibody)
chain: DVVMTQSPSSLSASVGDRVTITCQASQIISSRSAWYQQKPGQPPKLLIYQASKLASGVPSRFSGSGSGTDFTLTISSLQPEDFATYYCQCTYIDSNFGAFGCGTKLTVLGGGGGSEVQLVESGGGLVQPGGSLRLSCAASGFSLSSYDMSWVRQAPGKGLAWIGASYASGPTYYASWAKGRFTISRDNSKNTVYLQMNSLRAEDTATYFCARGGWTGTSHSNIWGQGTLVTVSSGGGGSGGGGSGGGGSGGGGSDIQMTQSPSSLSASVGDRVTITCQSSQSVFSNNYLAWFQQKPGQSPKRLIYSASTLASGVPSRFSGSGSGTDFTLTISSLQPEDFATYYCLGSYACSSADCYVFGTGTKVTVLGGGGGSEVQLVESGGGLVQPGGSLRLSCAASGFSFSSSYWICWVRQAPGKCLEWVGCVFTGDGTTYYASWAKGRFTISRDNSKNTVYLQMNSLRAEDTATYFCARPVSVYYYGMDLWGQGTLVTVSSGGGGSGGGGSAQQLTQSPSSLSASVGDRVTITCQASQNVWNNNYLSWFQQKPGKPPKLLIVTASTLASGVSSRFSGSGSGTDFTLTISSLQPEDFATYYCAGGFSGEIRAFGTGTKVTVLGGGGGSGGGGSGGGGSGGGGSQSQLVESGGGLVQPGGSLRLSCAVSGLSLSRNAMSWVRQAPGKGLEWIGIILTSGSTYYASWAKGRFTISKDNSKNTVYLQMNSLRAEDTAVYFCVRGIASSSLKSFWGQGTLVTVSS
notes: trispecific anti-ROR1 x hSA x CD3 scMATCH3, single chain; also called 23-13-A01-sc02 diS scDb-o/28-21-D09-sc04 scDb-i/55-39-G02-sc02-scFv
- Kd [9]: 0.33 nM
- koff [9]: 0.00045 s⁻¹
- kon [9]: 1.4e+06 M⁻¹ s⁻¹
- Kd [14]: 0.062 nM
- koff [14]: 6.7e-05 s⁻¹
- kon [14]: 1.1e+06 M⁻¹ s⁻¹
- fold lower EC50 binding than parental scFv PRO2062 [1]: ~5 fold
- koff [10]: 0.0027 s⁻¹
- kon [11]: 1.1e+06 M⁻¹ s⁻¹
- EC50 [12]: 1.33 nM
- Rel. maximum binding (MFIscMATCH3/MFIPRO2213) [12]: 1.87
- Kd [13]: 1.5 nM
- ka2 [13]: 0.00069 s⁻¹
- kd2 [13]: 0.0011 s⁻¹
